Measured values taken from patent publication US20020099180A1 (published 2002).

Molecular target: T1, tetanus toxoid (UniProt P04958 2-1315)
T1 construct: also called TTX
Assay: ELISA, wells coated with FAP or irrelevant Ag as for the chimeric scFv

T1 sequence (P04958 2-457 limits assumed, chain 1 of 2): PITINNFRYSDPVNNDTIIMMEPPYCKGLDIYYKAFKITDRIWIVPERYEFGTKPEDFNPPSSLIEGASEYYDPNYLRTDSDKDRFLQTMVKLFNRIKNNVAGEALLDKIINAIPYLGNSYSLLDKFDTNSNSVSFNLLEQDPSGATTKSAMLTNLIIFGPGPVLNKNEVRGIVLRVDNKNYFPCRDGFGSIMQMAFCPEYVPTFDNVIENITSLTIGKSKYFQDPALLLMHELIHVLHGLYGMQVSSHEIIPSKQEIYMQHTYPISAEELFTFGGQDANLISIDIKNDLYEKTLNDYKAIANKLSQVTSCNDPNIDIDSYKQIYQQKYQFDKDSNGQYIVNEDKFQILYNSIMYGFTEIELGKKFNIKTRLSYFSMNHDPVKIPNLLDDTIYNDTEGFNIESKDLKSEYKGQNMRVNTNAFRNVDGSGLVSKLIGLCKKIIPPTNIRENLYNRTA
T1 sequence (P04958 458-1315 limits assumed, chain 2 of 2): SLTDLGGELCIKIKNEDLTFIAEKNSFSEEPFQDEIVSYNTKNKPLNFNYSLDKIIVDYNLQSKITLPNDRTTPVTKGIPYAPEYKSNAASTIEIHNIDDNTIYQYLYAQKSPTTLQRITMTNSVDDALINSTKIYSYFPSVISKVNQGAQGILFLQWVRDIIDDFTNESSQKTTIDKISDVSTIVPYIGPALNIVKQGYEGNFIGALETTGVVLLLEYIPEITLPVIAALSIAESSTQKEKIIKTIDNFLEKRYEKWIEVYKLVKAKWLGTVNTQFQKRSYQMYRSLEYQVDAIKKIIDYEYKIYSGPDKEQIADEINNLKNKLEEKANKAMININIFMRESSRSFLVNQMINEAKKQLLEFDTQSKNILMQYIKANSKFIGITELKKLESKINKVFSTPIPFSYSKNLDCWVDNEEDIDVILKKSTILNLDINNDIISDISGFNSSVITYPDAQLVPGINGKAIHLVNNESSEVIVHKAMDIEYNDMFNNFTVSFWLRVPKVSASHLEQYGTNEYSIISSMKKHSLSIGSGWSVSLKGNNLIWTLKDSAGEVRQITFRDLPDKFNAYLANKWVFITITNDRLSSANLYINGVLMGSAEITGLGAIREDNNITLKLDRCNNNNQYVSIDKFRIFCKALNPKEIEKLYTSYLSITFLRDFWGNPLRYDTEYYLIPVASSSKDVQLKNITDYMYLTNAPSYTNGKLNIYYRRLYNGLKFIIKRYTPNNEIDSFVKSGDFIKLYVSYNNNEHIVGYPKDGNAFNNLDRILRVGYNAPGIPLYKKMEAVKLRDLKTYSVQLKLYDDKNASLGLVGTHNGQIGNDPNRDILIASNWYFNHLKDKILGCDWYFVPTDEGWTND

Row | Binder | binding result
1 | scFv #34 (VH #34, IgG; VL III43; murine HCDR3 F19) (scFv, Humanised monovalent scFv, detected through the c-myc tag with 9E10; also called clone #34; VH34YOL III43; not shown: c-myc and HIS6 tags (pOPE101), or pIII in the screening ELISA) scFv: QVQLQQSGAEVKKPGSSVKVSCKASGGTFSTHTINWVRQAPGQGLEWMGGIAPMFGTANYAQKFQGRVTITADKSTSTAYMEMSSLRSDDTAVYYCARRRIAYGYDEGHAMDYWGQGTLVTVSSASTKGPKLEEGEFSEARVDIQMTQSPSSLSASTGDRVTITCRASQDISSYLAWYQQAPGKAPHLLMSGATTLQTGVPSRFSGSGSGTDFTLTISSLQAEDVAVYYCQQYYRTPFTFGQGTKLEIKRTVAAPSVFAA | no binding
2 | scFv #18 (VH #18, IgG; VL III43; murine HCDR3 F19) (scFv, Humanised monovalent scFv, detected through the c-myc tag with 9E10; also called clone #18; VH18 YOL III43; not shown: c-myc and HIS6 tags (pOPE101), or pIII in the screening ELISA) scFv: QVQLVQSGAELKKPGSSMKVSCKASGDTFSTYSINWVRQAPGQGLEWMGVINPSGGSTSYAQKFQGRVTMTRDTSTSTVYMELSSLRSEDTAVYYCARRRIAYGYDEGHAMDYWGQGTLVTVSSASTKGPKLEEGEFSEARVDIQMTQSPSSLSASTGDRVTITCRASQDISSYLAWYQQAPGKAPHLLMSGATTLQTGVPSRFSGSGSGTDFTLTISSLQAEDVAVYYCQQYYRTPFTFGQGTKLEIKRTVAAPSVFAA | no binding
